The record followed here is paper PMC8956953 (The Journal of Biological Chemistry, 2022).

For this test, the target named is T1, recombinant human full-length tau protein (htau40) (human, UniProt P10636-8 1-441).
T1 construct: human microtubule-associated protein tau, longest CNS splicing variant 2N4R (htau40); also called recombinant htau40; 2N4R; source: E. coli-derived recombinant protein
In words: peptide or protein array; ProtoArray Human Protein Microarrays v5.1, ~9000 N-terminal GST-tagged human proteins spotted on nitrocellulose-coated slides; htau40 at 5 and 50 ng/μl in probe buffer (1x PBS, 0.1% Tween-20, 1x synthetic block), 90 min at 4 °C; detected with anti-tau K9JA and Alexa Fluor 647 secondary antibody. Particulars: both partners purified.

B1: YES1, spotted on the ProtoArray (enzyme)
chain: not shown
notes: human YES1 kinase; not shown: GST, N-terminal, kept
For the molecule B1, the binding result is listed as “binds”.

B2: S100 calcium-binding protein B, spotted on the ProtoArray (natural protein, human, UniProt P04271 1-92, looked up)
chain: MSELEKAMVALIDVFHQYSGREGDKHKLKKSELKELINNELSHFLEEIKEQEVVDKVMETLDNDGDGECDFQEFMAFVAMVTTACHEFFEHE
notes: also called S100β; not shown: GST, N-terminal, kept
With B2, the binding result is recorded as “binds”.

B3: RPS6KA6, spotted on the ProtoArray (enzyme, human, UniProt Q9UK32 1-745, looked up)
chain: MLPFAPQDEPWDREMEVFSGGGASSGEVNGLKMVDEPMEEGEADSCHDEGVVKEIPITHHVKEGYEKADPAQFELLKVLGQGSFGKVFLVRKKTGPDAGQLYAMKVLKKASLKVRDRVRTKMERDILVEVNHPFIVKLHYAFQTEGKLYLILDFLRGGDVFTRLSKEVLFTEEDVKFYLAELALALDHLHQLGIVYRDLKPENILLDEIGHIKLTDFGLSKESVDQEKKAYSFCGTVEYMAPEVVNRRGHSQSADWWSYGVLMFEMLTGTLPFQGKDRNETMNMILKAKLGMPQFLSAEAQSLLRMLFKRNPANRLGSEGVEEIKRHLFFANIDWDKLYKREVQPPFKPASGKPDDTFCFDPEFTAKTPKDSPGLPASANAHQLFKGFSFVATSIAEEYKITPITSANVLPIVQINGNAAQFGEVYELKEDIGVGSYSVCKRCIHATTNMEFAVKIIDKSKRDPSEEIEILMRYGQHPNIITLKDVFDDGRYVYLVTDLMKGGELLDRILKQKCFSEREASDILYVISKTVDYLHCQGVVHRDLKPSNILYMDESASADSIRICDFGFAKQLRGENGLLLTPCYTANFVAPEVLMQQGYDAACDIWSLGVLFYTMLAGYTPFANGPNDTPEEILLRIGNGKFSLSGGNWDNISDGAKDLLSHMLHMDPHQRYTAEQILKHSWITHRDQLPNDQPKRNDVSHVVKGAMVATYSALTHKTFQPVLEPVAASSLAQRRSMKKRTSTGL
notes: human RPS6KA6 kinase; not shown: GST, N-terminal, kept
Turning to B3, the binding result is recorded as “binds”.
